Key:
[1] = test system: Streptococcus mutan; assay: Challenge test of 1:100 diluted cleaners with organic load, Streptococcus mutan; details: cleaner diluted 1:100, organic load, 40±1° C.
[2] = test system: Staphylococcus aureus (ATCC 6538); assay: Challenge test of 1:100 diluted cleaners with organic load, Staphylococcus aureus; details: cleaner diluted 1:100, organic load, 40±1° C.
[3] = test system: Pseudomonas aeruginosa ATCC15442; assay: Challenge test of 1:100 diluted cleaners with organic load, Pseudomonas aeruginosa

B1: Subtilisin Savinase 16L (protein, UniProt P29600 1-269, looked up)
Subtilisin Savinase: AQSVPWGISRVQAPAAHNRGLTGSGVKVAVLDTGISTHPDLNIRGGASFVPGEPSTQDGNGHGTHVAGTIAALNNSIGVLGVAPSAELYAVKVLGASGSGSVSSIAQGLEWAGNNGMHVANLSLGSPSPSATLEQAVNSATSRGVLVVAASGNSGAGSISYPARYANAMAVGATDQNNNRASFSQYGAGLDIVAPGVNVQSTYPGSTYASLNGTSMATPHVAGAAALVKQKNPSWSNVQIRNHLKNTATSLGSTNLYGSGLVNAEAATR
Concentration CFU/ml after time, 0 hrs ([1]; 0 hrs (initial)): 1.40E+07 CFU/ml | Concentration CFU/ml after time, 1 hr ([1]; 1 hr): 3.65E+07 CFU/ml | Concentration CFU/ml after time, 4 hrs ([1]; 4 hrs): 2.00E+06 CFU/ml | Concentration CFU/ml after time, 6 hrs ([1]; 6 hrs): 1.60E+06 CFU/ml | Concentration CFU/ml after time, 24 hrs ([1]; 24 hrs): 1.16E+06 CFU/ml | Concentration CFU/ml after time, 0 hrs ([2]; 0 hrs (initial)): 4.21E+07 CFU/ml | Concentration CFU/ml after time, 1 hr ([2]; 1 hr): 1.58E+08 CFU/ml | Concentration CFU/ml after time, 4 hrs ([2]; 4 hrs): 1.26E+08 CFU/ml | Concentration CFU/ml after time, 6 hrs ([2]; 6 hrs): 2.00E+08 CFU/ml | Concentration CFU/ml after time, 24 hrs ([2]; 24 hrs): 7.94E+07 CFU/ml | Concentration CFU/ml after time, 0 hrs ([3]; 0 hrs (initial), cleaner diluted 1:100, organic load, 40±1° C.): 2.94E+06 CFU/ml | Concentration CFU/ml after time, 1 hr ([3]; 1 hr, cleaner diluted 1:100, organic load, 40±1° C.): 3.69E+08 CFU/ml | Concentration CFU/ml after time, 4 hr ([3]; 4 hr, cleaner diluted 1:100, organic load, 40±1° C.): 2.06E+09 CFU/ml | Concentration CFU/ml after time, 6 hrs ([3]; 6 hrs, cleaner diluted 1:100, organic load, 40±1° C.): 3.80E+09 CFU/ml | Concentration CFU/ml after time, 24 hrs ([3]; 24 hrs, cleaner diluted 1:100, organic load, 40±1° C.): 1.46E+11 CFU/ml | reduction of microorganisms by single component alone ([3]; protease or phenoxyethanol alone at the concentrations of diluted A and B): Neither the protease nor the phenoxyethanol alone at these concentrations achieved a reduction

From patent US20110123508A1, “INSTRUMENT CLEANER” (NOVAPHARM RESEARCH (AUSTRALIA) PTY. LTD., priority 2008, published 2011)
